Measurements published in IntAct's records for PubMed 17347647.

B1: Rho GTPase-activating protein 21 (Homo sapiens), Q5T5U3 (parent)
chain: MMATRRTGLSEGDGDKLKACEVSKNKDGKEQSETVSLSEDETFSWPGPKTVTLKRTSQGFGFTLRHFIVYPPESAIQFSYKDEENGNRGGKQRNRLEPMDTIFVKQVKEGGPAFEAGLCTGDRIIKVNGESVIGKTYSQVIALIQNSDTTLELSVMPKDEDILQVLQFTKDVTALAYSQDAYLKGNEAYSGNARNIPEPPPICYPWLPSAPSAMAQPVEISPPDSSLSKQQTSTPVLTQPGRAYRMEIQVPPSPTDVAKSNTAVCVCNESVRTVIVPSEKVVDLLSNRNNHTGPSHRTEEVRYGVSEQTSLKTVSRTTSPPLSIPTTHLIHQPAGSRSLEPSGILLKSGNYSGHSDGISSSRSQAVEAPSVSVNHYSPNSHQHIDWKNYKTYKEYIDNRRLHIGCRTIQERLDSLRAASQSTTDYNQVVPNRTTLQGRRRSTSHDRVPQSVQIRQRSVSQERLEDSVLMKYCPRSASQGALTSPSVSFSNHRTRSWDYIEGQDETLENVNSGTPIPDSNGEKKQTYKWSGFTEQDDRRGICERPRQQEIHKSFRGSNFTVAPSVVNSDNRRMSGRGVGSVSQFKKIPPDLKTLQSNRNFQTTCGMSLPRGISQDRSPLVKVRSNSLKAPSTHVTKPSFSQKSFVSIKDQRPVNHLHQNSLLNQQTWVRTDSAPDQQVETGKSPSLSGASAKPAPQSSENAGTSDLELPVSQRNQDLSLQEAETEQSDTLDNKEAVILREKPPSGRQTPQPLRHQSYILAVNDQETGSDTTCWLPNDARREVHIKRMEERKASSTSPPGDSLASIPFIDEPTSPSIDHDIAHIPASAVISASTSQVPSIATVPPCLTTSAPLIRRQLSHDHESVGPPSLDAQPNSKTERSKSYDEGLDDYREDAKLSFKHVSSLKGIKIADSQKSSEDSGSRKDSSSEVFSDAAKEGWLHFRPLVTDKGKRVGGSIRPWKQMYVVLRGHSLYLYKDKREQTTPSEEEQPISVNACLIDISYSETKRKNVFRLTTSDCECLFQAEDRDDMLAWIKTIQESSNLNEEDTGVTNRDLISRRIKEYNNLMSKAEQLPKTPRQSLSIRQTLLGAKSEPKTQSPHSPKEESERKLLSKDDTSPPKDKGTWRKGIPSIMRKTFEKKPTATGTFGVRLDDCPPAHTNRYIPLIVDICCKLVEERGLEYTGIYRVPGNNAAISSMQEELNKGMADIDIQDDKWRDLNVISSLLKSFFRKLPEPLFTNDKYADFIEANRKEDPLDRLKTLKRLIHDLPEHHYETLKFLSAHLKTVAENSEKNKMEPRNLAIVFGPTLVRTSEDNMTHMVTHMPDQYKIVETLIQHHDWFFTEEGAEEPLTTVQEESTVDSQPVPNIDHLLTNIGRTGVSPGDVSDSATSDSTKSKGSWGSGKDQYSRELLVSSIFAAASRKRKKPKEKAQPSSSEDELDNVFFKKENVEQCHNDTKEESKKESETLGRKQKIIIAKENSTRKDPSTTKDEKISLGKESTPSEEPSPPHNSKHNKSPTLSCRFAILKESPRSLLAQKSSHLEETGSDSGTLLSTSSQASLARFSMKKSTSPETKHSEFLANVSTITSDYSTTSSATYLTSLDSSRLSPEVQSVAESKGDEADDERSELISEGRPVETDSESEFPVFPTALTSERLFRGKLQEVTKSSRRNSEGSELSCTEGSLTSSLDSRRQLFSSHKLIECDTLSRKKSARFKSDSGSLGDAKNEKEAPSLTKVFDVMKKGKSTGSLLTPTRGESEKQEPTWKTKIADRLKLRPRAPADDMFGVGNHKVNAETAKRKSIRRRHTLGGHRDATEISVLNFWKVHEQSGERESELSAVNRLKPKCSAQDLSISDWLARERLRTSTSDLSRGEIGDPQTENPSTREIATTDTPLSLHCNTGSSSSTLASTNRPLLSIPPQSPDQINGESFQNVSKNASSAANAQPHKLSETPGSKAEFHPCL

Variants of: B1
Conditions: with arf1_mouse Arf1, P84078
Chain of arf1_mouse Arf1, P84078 (P84078 whole entry): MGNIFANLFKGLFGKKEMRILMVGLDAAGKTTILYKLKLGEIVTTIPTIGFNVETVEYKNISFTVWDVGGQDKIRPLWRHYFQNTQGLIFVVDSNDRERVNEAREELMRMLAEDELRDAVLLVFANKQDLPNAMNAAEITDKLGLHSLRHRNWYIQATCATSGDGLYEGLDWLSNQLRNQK

effect of a mutation on the interaction	Variant
decreasing interaction	Y1000A

Variants of: B1
Conditions: with arf1_mouse Arf1, P84078
Remark: another data set of the same source

effect of a mutation on the interaction	Variant
decreasing interaction	I1054A
